The values below come from US7579445.

In experiment [1] the target is surface of P815-PSA cells (PSA-transfected DBA/2 mastocytoma cell line). In words: FACS on P815-PSA cells; negative control 3.
Experiment [2] shares this target. In words: FACS on P815-PSA cells; negative control 5.
Experiment [3] deals with surface of Line-1-PSA cells (PSA-transfected Balb/cByJ lung carcinoma cell line). In words: FACS on Line 1-PSA cells; negative control 4.
Experiment [4] has the same target. In words: FACS on Line 1-PSA cells; negative control 7.

As for MOPC-21 (antibody), the mean fluorescence in experiment [1] was determined as 11; in experiment [2], 37; in experiment [3], 5; in experiment [4], 8.
